According to patent US9127040B2, “Regulation of sodium channels by PLUNC proteins” (The University of North Carolina at Chapel Hill, priority 2011, dated 2015):

Experiments:
serine proteases = assay: Endogenous protease activity (BGAR-MCA cleavage) on mucosal surface of human bronchial epithelial cultures; format: cell-based
Protocol: For cell-free assays, reactions were carried out in 50 μl Ringer in a 96 well plate format with 100 μM BGAR-MCA. To measure endogenous protease activity in human bronchial epithelial cultures, 30 μl Ringer with 100 μM BGAR-MCA were placed directly onto the mucosal surfaces of human bronchial epithelial cultures grown on 12 mm T-clear inserts and the cultures were assayed in 12 well plates.

α, β and γENaC subunits = biological target: T1, α, β and γENaC subunits (Rattus norvegicus, UniProt P37089+P37090+P37091); assay: Co-immunoprecipitation of V5-tagged SPLUNC1 with HA-tagged ENaC subunits in Xenopus oocytes; format: binding; conditions: V5-tagged SPLUNC1, anti-HA immunoprecipitation
T1 construct: expressed in transfected cells; host or cells: Xenopus oocytes (cRNA injection; with or without V5-SPLUNC1 and CAP2)
T1 sequence (P37089 1-698): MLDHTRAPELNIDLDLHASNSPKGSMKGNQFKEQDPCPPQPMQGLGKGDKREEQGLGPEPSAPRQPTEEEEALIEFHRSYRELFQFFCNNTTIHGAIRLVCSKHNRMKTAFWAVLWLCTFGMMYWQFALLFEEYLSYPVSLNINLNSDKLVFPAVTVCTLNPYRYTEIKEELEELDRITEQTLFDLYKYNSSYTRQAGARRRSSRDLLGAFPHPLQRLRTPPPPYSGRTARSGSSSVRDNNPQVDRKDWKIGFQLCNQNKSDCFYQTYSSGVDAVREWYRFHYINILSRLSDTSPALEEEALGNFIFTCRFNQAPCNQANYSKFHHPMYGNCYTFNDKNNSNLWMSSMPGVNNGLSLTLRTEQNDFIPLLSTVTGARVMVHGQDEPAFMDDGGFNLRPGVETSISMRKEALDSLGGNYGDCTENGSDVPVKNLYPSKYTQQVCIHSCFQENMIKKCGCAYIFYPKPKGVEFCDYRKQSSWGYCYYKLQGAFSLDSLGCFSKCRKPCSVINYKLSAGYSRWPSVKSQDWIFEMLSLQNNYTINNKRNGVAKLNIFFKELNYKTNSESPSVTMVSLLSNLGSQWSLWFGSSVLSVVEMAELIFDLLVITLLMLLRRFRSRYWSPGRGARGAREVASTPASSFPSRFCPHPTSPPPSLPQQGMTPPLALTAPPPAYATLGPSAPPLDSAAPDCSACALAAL
T1 sequence (P37090 1-638): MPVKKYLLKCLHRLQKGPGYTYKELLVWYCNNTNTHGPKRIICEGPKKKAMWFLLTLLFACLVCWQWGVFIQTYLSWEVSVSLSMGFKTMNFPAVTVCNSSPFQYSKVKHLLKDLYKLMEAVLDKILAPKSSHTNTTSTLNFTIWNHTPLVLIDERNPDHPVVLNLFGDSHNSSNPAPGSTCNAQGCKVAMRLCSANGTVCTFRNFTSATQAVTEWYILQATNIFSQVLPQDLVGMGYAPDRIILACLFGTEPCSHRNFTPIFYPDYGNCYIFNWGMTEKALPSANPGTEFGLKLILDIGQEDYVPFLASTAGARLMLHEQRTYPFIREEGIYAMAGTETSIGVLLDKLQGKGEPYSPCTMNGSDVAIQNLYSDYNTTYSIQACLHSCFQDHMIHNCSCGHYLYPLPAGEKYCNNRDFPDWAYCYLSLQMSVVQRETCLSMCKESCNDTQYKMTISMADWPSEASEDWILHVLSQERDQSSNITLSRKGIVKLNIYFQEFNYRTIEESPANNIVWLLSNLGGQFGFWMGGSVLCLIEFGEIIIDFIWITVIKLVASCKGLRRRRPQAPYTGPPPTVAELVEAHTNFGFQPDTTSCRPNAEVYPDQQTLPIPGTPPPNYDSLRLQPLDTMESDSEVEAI
T1 sequence (P37091 1-650): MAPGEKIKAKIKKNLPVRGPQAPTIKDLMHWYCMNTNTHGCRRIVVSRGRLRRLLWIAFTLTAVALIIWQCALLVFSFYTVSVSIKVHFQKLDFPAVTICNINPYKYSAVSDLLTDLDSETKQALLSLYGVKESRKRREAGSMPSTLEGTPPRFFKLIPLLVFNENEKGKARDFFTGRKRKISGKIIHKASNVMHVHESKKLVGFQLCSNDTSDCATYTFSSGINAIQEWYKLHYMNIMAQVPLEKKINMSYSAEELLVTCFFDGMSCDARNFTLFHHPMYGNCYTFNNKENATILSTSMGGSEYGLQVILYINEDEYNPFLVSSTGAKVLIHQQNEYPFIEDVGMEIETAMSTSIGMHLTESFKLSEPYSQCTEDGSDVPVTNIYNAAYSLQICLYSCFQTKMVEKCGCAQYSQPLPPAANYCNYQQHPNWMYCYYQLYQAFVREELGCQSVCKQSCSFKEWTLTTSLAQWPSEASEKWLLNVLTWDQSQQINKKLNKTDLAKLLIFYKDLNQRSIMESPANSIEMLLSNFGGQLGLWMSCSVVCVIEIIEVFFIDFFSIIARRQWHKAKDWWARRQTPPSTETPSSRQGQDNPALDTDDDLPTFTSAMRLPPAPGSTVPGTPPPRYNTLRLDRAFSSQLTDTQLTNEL
Protocol: Xenopus oocytes were injected with either HA-N-Terminus or V5-C-Terminus (HA-NT/V5-CT) tagged subunits in combination with wild type (WT) untagged rat αβγENaC subunits (0.3 ng cRNA each) with or without V5-tagged SPLUNC1 and CAP2 (1 ng cRNA each). After 24 h, 40 eggs per experimental condition were lysed with buffer containing (in mM): 20 Tris, 50 NaCl, 50 NaF, 10 β-glycerophosphate, 5 Na4P2O7 pyrophosphate, 1 EDTA, pH 7.5 and protease inhibitors (complete, Roche), aprotinin (Sigma). Cell lysates were prepared by passing the eggs through a 27G1/2 needle twice and by centrifugation at 3,600 rpm for 10 minutes at 4° C. Supernatants were transferred to new tubes and samples were spun at 14,000 rpm for 20 minutes at 4° C. Supernatants were discarded and pellets were solubilized in (mM) 50 Tris, 100 NaCl, 0.1% Triton X-100, 0.1% NP-40, 20 NaF, 10 Na4P2O7, 10 EDTA+protease inhibitor cocktail (Sigma), pH 7.5. Total inputs were taken from whole cell samples representing 4% of total protein. Solubilized proteins were incubated with 50 μl of protein A and 5 μl of anti-HA antibody (Covance) overnight while tumbling at 4° C. Samples were washed three times with (mM) 150 NaCl 50 Tris pH 7.5 buffer. Laemmli buffer was added and samples were loaded on a 15% gradient Tris-glycine gel after incubation for 10 minutes at 96° C. […]

B1: SPLUNC1: human SPLUNC1 (SEQ ID NO:1), 256 amino acid secreted PLUNC family protein; rSPLUNC1 is the purified V5/6His-tagged recombinant form (protein, listed as Homo sapiens)
chain: MFQTGGLIVFYGLLAQTMAQFGGLPVPLDQTLPLNVNPALPLSPTGLAGSLTNALSNGLLSGGLLGILENLPLLDILKPGGGTSGGLLGGLLGKVTSVIPGLNNIIDIKVTDPQLLELGLVQSPDGHRLYVTIPLGIKLQVNTPLVGASLLRLAVKLDITAEILAVRDKQERIHLVLGDCTHSPGSLQISLLDGLGPLPIQGLLDSLTGILNKVLPELVQGNVCPLVNEVLRGLDITLVHDIVNMLIHGLQFVIKV
modifications: V5/6His tag in recombinant form
notes: rSPLUNC1 is the purified V5/6His-tagged recombinant form
BGAR-MCA cleavage on human bronchial epithelial mucosal surfaces (serine proteases): no significant affect
binding to ENaC subunits (co-immunoprecipitation) (α, β and γENaC subunits): bound to all three ENaC subunits
